Measured values from article PMC3285272 (Cell, 2012).
One block for each binder: values may come before it.

B2: S. cerevisiae Arf1 (residues 18–181) I43E with a C-terminal GST tag (domain or fragment, UniProt P11076 18-181, looked up)
chain: MRILMVGLDGAGKTTVLYKLKLGEVETTIPTIGFNVETVQYKNISFTVWDVGGQDRIRSLWRHYYRNTEGVIFVVDSNDRSRIGEAREVMQRMLNEDELRNAAWLVFANKQDLPEAMSAAEITEKLGLHSIRNRPWFIQATCATSGEGLYEGLEWLSNSLKNST

What was measured:
[1] = target: full-length βδ/γζ-COP complex (R. norvegicus | B. taurus, UniProt P23514 1-953; P53619 1-511; P53620 1-874; P35604 1-177); assay: GTPase fluorescence assay
[2] = target: T1, full-length γζ-COP dimer (B. taurus, UniProt P53620 1-874; P35604 1-177); assay: pull-down
T1 sequence (looked up) 1: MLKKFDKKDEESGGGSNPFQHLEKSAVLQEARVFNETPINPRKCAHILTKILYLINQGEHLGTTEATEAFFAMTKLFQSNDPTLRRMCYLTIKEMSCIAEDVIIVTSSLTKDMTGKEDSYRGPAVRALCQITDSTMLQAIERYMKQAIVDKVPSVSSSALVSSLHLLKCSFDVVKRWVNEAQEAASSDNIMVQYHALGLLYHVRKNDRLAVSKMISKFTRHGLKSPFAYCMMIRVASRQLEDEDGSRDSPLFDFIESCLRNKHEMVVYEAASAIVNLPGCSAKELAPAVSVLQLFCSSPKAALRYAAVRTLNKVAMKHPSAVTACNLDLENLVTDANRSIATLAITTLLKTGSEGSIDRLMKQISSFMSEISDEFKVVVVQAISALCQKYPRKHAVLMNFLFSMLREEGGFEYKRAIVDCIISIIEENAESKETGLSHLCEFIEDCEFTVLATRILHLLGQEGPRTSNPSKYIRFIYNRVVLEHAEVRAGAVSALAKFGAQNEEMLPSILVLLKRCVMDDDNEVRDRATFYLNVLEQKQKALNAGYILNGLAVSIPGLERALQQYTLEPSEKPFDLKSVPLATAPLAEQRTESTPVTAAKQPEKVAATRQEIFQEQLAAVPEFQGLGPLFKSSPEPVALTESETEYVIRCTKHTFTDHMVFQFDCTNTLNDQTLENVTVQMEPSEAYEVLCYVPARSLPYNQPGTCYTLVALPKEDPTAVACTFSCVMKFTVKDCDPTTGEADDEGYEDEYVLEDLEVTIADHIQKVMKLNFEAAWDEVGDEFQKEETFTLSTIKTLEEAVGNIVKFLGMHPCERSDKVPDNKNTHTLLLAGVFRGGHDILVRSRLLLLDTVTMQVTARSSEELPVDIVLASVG
T1 sequence (looked up) 2: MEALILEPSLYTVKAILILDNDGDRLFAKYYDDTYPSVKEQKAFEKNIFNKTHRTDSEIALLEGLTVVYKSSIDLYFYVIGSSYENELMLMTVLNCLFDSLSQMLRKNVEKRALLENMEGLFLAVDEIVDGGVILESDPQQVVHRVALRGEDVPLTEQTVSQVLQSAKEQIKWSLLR

[3] = target: T2, γζ-COP core complex (bovine γ-COP 1–355 plus ζ-COP 1–153) (B. taurus, UniProt P53620 1-355; P35604 1-153); assay: crystal structure
T2 sequence (looked up) 1: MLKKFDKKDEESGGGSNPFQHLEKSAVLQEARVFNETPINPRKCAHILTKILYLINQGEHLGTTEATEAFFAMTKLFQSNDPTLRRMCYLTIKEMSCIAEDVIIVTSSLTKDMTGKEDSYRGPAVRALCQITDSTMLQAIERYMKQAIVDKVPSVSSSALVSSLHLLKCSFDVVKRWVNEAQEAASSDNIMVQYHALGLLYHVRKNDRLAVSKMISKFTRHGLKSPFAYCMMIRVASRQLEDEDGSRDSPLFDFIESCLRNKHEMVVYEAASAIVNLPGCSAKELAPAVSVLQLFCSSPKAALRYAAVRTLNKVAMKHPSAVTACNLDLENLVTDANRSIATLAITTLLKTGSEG
T2 sequence (looked up) 2: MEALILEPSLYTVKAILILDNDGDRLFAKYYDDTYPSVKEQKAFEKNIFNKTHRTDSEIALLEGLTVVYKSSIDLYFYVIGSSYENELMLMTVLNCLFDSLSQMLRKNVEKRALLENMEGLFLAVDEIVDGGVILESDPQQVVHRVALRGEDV

[4] = target: B2; assay: pull-down

Kd [1]: ~1000 nM
B1: H. sapiens Arf1 (residues 18–181) (domain or fragment)
chain: not shown

Binder: B2
binding result [2]: binds

binding result [3]: binds
B3: S. cerevisiae Arf1 (residues 18–181) complexed with GppNHp (domain or fragment, UniProt P11076 18-181, looked up)
chain: MRILMVGLDGAGKTTVLYKLKLGEVITTIPTIGFNVETVQYKNISFTVWDVGGQDRIRSLWRHYYRNTEGVIFVVDSNDRSRIGEAREVMQRMLNEDELRNAAWLVFANKQDLPEAMSAAEITEKLGLHSIRNRPWFIQATCATSGEGLYEGLEWLSNSLKNST

percent binding capacity relative to wild-type Arf1 [4]: 90%
B4: full-length βδ-COP dimer (complex, R. norvegicus | B. taurus)
chain 1: MTAAENVCYTLINVPMDSEPPSEISLKNDLEKGDVKSKTEALKKVIIMILNGEKLPGLLMTIIRFVLPLQDHTIKKLLLVFWEIVPKTTPDGRLLHEMILVCDAYRKDLQHPNEFIRGSTLRFLCKLKEAELLEPLMPAIRACLEHRHSYVRRNAVLAIYTIYRNFENLIPDAPELIHDFLVNEKDASCKRNAFMMLIHADQDRALDYLSTCIDQVQTFGDILQLVIVELIYKVCHANPSERARFIRCIYNLLQSSSPAVKYEAAGTLVTLSSAPTAIKAAAQCYIDLIIKESDNNVKLIVLDRLVELKEHPAHERVLQDLVMDILRVLSTPDLEVRKKTLQLALDLVSSRNVEELVIVLKKEVIKTNNVSEHEDTDKYRQLLVRTLHSCSVRFPDMAANVIPVLMEFLSDSNEAAAADVLEFVREAIQRFDNLRMLIVEKMLEVFHAIKSVKIYRGALWILGEYCSTKEDIQSVMTEVRRSLGEIPIVESEIKKEAGELKPEEEITVGPVQKLVTEMGTYATQSALSSSRPTKKEEDRPPLRGFLLDGDFFVAASLATTLTKIALRYVALVQEKKKQNSFVAEAMLLMATILHLGKSSLPKKPITDDDVDRISLCLKVLSECSPLMNDIFNKECRQSLSQMLSAKLEEEKLSQKKESEKRNVTVQPDDPISFMQLTAKNEMNCKEDQFQLSLLAAMGNTQRKEAADPLASKLNKVTQLTGFSDPVYAEAYVHVNQYDIVLDVLVVNQTSDTLQNCTLELATLGDLKLVEKPSPLTLAPHDFANIKANVKVASTENGIIFGNIVYDVSGAASDRNCVVLSDIHIDIMDYIQPATCTDAEFRQMWAEFEWENKVTVNTNVTDLNDYLQHILKSTNMKCLTPEKALSGYCGFMAANLYARSIFGEDALANVSIEKPVHQGPDAAVTGHIRIRAKSQGMALSLGDKINLSQKKTSL
chain 2: MVLLAAAVCTKAGKAIVSRQFVEMTRTRIEGLLAAFPKLMNTGKQHTFVETESVRYVYQPMEKLYMVLITTKNSNILEDLETLRLFSRVIPEYCRALEENEISEHCFDLIFAFDEIVALGYRENVNLAQIRTFTEMDSHEEKVFRAVRETQEREAKAEMRRKAKELQQARRDAERQGKKAPGFGGFGSSTVSGGSTTSMITETIIETDKPKVAPAPARPSGPSKALKLGAKGKEVDNFVDKLKSEGENIISSNMGKRTSEATKVHAPPINMESVHMKIEEKITLTCGRDGGLQNMELHGMIMLRISDDKFGRIRLHVENEDKKGVQLQTHPNVDKKLFTAESLIGLKNPEKSFPVNSDVGVLKWRLQTTEESFIPLTINCWPSESGNGCDVNIEYELQEDNLELNDVVITIPLPSGVGAPVIGEIDGEYRHDSRRNTLEWCLPVIDAKNKSGSLEFSIAGQPNDFFPVQVSFISKKNYCNIQVTKVTQVDGNSPVRFSTETTFLVDKYEIL
